From PMC9507964, “Structure of CRL7^FBXW8 reveals coupling with CUL1–RBX1/ROC1 for multi-cullin-RING E3-catalyzed ubiquitin ligation” (Nature Structural & Molecular Biology, 2022) come the findings set out here.

Test [1] has as its target T1, FBXW8 (human, UniProt Q8N3Y1 1-598).
T1 construct: FBXW8, human, full length; source: HEK293S, co-expressed (BacMam), purified within CRL7^FBXW8; not shown: GFP, N-terminal, cleaved
T1 sequence (looked up): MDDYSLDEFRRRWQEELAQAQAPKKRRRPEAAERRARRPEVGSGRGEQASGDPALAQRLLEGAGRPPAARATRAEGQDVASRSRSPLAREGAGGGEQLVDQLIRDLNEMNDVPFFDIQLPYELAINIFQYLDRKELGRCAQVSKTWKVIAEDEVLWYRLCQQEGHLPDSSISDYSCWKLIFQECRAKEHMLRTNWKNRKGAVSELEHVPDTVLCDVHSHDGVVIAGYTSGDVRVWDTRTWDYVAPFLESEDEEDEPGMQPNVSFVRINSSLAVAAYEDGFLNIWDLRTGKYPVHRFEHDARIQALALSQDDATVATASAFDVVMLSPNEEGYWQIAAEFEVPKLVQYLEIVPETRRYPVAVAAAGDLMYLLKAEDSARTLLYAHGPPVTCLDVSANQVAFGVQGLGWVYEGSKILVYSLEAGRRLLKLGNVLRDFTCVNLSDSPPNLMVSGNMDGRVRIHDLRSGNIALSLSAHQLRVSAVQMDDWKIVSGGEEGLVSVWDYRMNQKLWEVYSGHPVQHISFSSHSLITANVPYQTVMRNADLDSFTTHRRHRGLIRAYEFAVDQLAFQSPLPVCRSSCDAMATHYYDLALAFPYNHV
As to the kind of experiment: cryo-EM structure; purified CRL7^FBXW8 and CUL1 N-terminal region mixed 15 min before plunging, on ice; Glacios 200 kV. The following applies: both partners purified.

The target in test [2] is T2, CUL1–RBX1 (full-length CUL1) (human, UniProt Q13616 1-776; P62877 5-108).
T2 construct: CUL1, human, full length; RBX1, human, residue 5 to C terminus; Unneddylated form used in the SEC experiments; also called full-length CUL1–RBX1; not shown: GST, N-terminal, cleaved
Briefly: SEC; comigration; proteins mixed at equimolar 1.5 μM for at least 10 min on ice; Superose 6 5/150GL; 50 mM Tris pH 7.5, 150 mM NaCl, 1 mM DTT; fractions on Coomassie-stained SDS–PAGE. As to conditions: both partners purified. On the technique in general: SEC sorts molecules by how far they enter the pores of the column.

B1: CUL1 N-terminal region (residues 1–410) (domain or fragment)
chain: not shown
notes: CUL1, human, residues 1 to 410 encompassing the CR1, CR2 and CR3 domains; Expressed as a GST-thrombin or GST-TEV fusion; also called CUL1^NTD; N-terminal region of CUL1 (CR1, CR2 and CR3 domains)
Take B1: the binding result in test [1] was “binds”.

B2: SKP1^ΔΔ–β-TRCP1 (monomeric form) complex (complex, human)
chain 1: MLQRDFITALPARGLDHIAENILSYLDAKSLCAAELVCKEWYRVTSDGMLWKKLIERMVRTDSLWRGLAERRGWGQYLFKNKPPDGNAPPNSFYRALYPKIIQDIETIESNWRCGRHSLQRIHCRSETSKGVYCLQYDDQKIVSGLRDNTIKIWDKNTLECKRILTGHTGSVLCLQYDERVIITGSSDSTVRVWDVNTGEMLNTLIHHCEAVLHLRFNNGMMVTCSKDRSIAVWDMASPTDITLRRVLVGHRAAVNVVDFDDKYIVSASGDRTIKVWNTSTCEFVRTLNGHKRGIACLQYRDRLVVSGSSDNTIRLWDIECGACLRVLEGHEELVRCIRFDNKRIVSGAYDGKIKVWDLVAALDPRAPAGTLCLRTLVEHSGRVFRLQFDEFQIVSSSHDDTILIWDFLNDPAAQAEPPRSPSRTYTYISR
chain 2: MPSIKLQSSDGEIFEVDVEIAKQSVTIKTMLEDLGMDPVPLPNVNAAILKKVIQWCTHHKDDPPDDIPVWDQEFLKVDQGTLFELILAANYLDIKGLLDVTCKTVANMIKGKTPEEIRKTFNIKNDFTEEEEAQVRKENQWCEEK
notes: β-TRCP1, human, monomeric form, from residue 175 to C terminus; also called SKP1-β-TRCP1; SKP-β-TRCP1; not shown: His-MBP, N-terminal, cleaved
Take B2: in test [2], the binding result is given as “binds”.
